Holding throughout (test): cell-based or functional assay
Assay [1] concerns the target GLP-1 receptor.
Assay [2] has as its target GLP-1 receptor. The source holds these as a separate data set.
Assay [3] concerns the target GLP-1 receptor. The source holds these as a separate data set.

Positions count from the first letter of the chain named. Where two headings read alike, the source gives them in different places. Ends that are not written are not given here.

B1: HGEGTFTSDVSSYLEEEAVRLFIEWLKNGGP-NH2 (peptide)
peptide: HGEGTFTSDVSSYLEEEAVRLFIEWLKNGGP-NH2
On to B1, for which, in the assay with GLP-1 receptor [1], the “In Vitro Activity (% of Val^8-GLP-1(7-37)OH)” value was 5.4 % of Val^8-GLP-1(7-37)OH.

B2: HVEGTFTSDVSSYLEEEAVRLFIAWLVKGRG (peptide)
peptide: HVEGTFTSDVSSYLEEEAVRLFIAWLVKGRG
As to B2, in the assay with GLP-1 receptor [1], the “In Vitro Activity (% of Val^8-GLP-1(7-37)OH)” value is 1.47 % of Val^8-GLP-1(7-37)OH.

B3: HVEGTFTSDLSKQMEGQAAKEFIAWLVKGRG (peptide)
peptide: HVEGTFTSDLSKQMEGQAAKEFIAWLVKGRG
For B3, in the assay with GLP-1 receptor [1], the “In Vitro Activity (% of Val^8-GLP-1(7-37)OH)” value was 0.11 % of Val^8-GLP-1(7-37)OH.

B4: Val^8-GLP-1(7-37)OH (peptide)
peptide: HVEGTFTSDVSSYLEGQAAKEFIAWLVKGRG
As to B4, the “In Vitro Activity (% of Val^8-GLP-1(7-37)OH)” value in the assay with GLP-1 receptor [1] is 1 % of Val^8-GLP-1(7-37)OH.

B5: Val^8-Phe^18-Glu^22-GLP-1(7-37)OH (peptide)
peptide: B4 peptide with S12F, G16E
B5: the “GLP-1 Receptor Activation” value in the assay with GLP-1 receptor [2] was 0.94 fold of GLP-1(7-37)OH.

B6: Val^8-Ile^16-Glu^22-GLP-1(7-37)OH (peptide)
peptide: B4 peptide with V10I, G16E
B6: the “GLP-1 Receptor Activation” value with GLP-1 receptor [2] was 1.55 fold of GLP-1(7-37)OH.

B7: Val^8-Leu^16-Glu^22-GLP-1(7-37)OH (peptide)
peptide: B4 peptide with V10L, G16E
Turning to B7, the “GLP-1 Receptor Activation” value with GLP-1 receptor [2] is 2.02 fold of GLP-1(7-37)OH.

B8: Val^8-Tyr^12-Tyr^16-GLP-1(7-37)OH (peptide)
peptide: B4 peptide with F6Y, V10Y
Consider B8, for which the “GLP-1 Receptor Activation” value with GLP-1 receptor [2] is 0.7 fold of GLP-1(7-37)OH.

B9: Val^8-Trp^12-Glu^22-GLP-1(7-37)OH (peptide)
peptide: B4 peptide with F6W, G16E
Turning to B9, the “GLP-1 Receptor Activation” value with GLP-1 receptor [2] is 0.8 fold of GLP-1(7-37)OH.

B10: Val^8-Tyr^16-Phe^19-GLP-1(7-37)OH (peptide)
peptide: B4 peptide with V10Y, Y13F
In the case of B10, in the assay with GLP-1 receptor [2], the “GLP-1 Receptor Activation” value was 1.32 fold of GLP-1(7-37)OH.

B11: Val^8-Trp^19-Glu^22-GLP-1(7-37)OH (peptide)
peptide: B4 peptide with Y13W, G16E
On to B11, for which the “GLP-1 Receptor Activation” value with GLP-1 receptor [2] is 1.5 fold of GLP-1(7-37)OH.

B12: Val^8-Ile^18-Glu^22-GLP-1(7-37)OH (peptide)
peptide: B4 peptide with S12I, G16E
For the molecule B12, the “GLP-1 Receptor Activation” value with GLP-1 receptor [2] was 1.88 fold of GLP-1(7-37)OH.

B13: Val^8-Phe^16-Glu^22-GLP-1(7-37)OH (peptide)
peptide: B4 peptide with V10F, G16E
For B13, the “GLP-1 Receptor Activation” value in the assay with GLP-1 receptor [2] was 1.08 fold of GLP-1(7-37)OH.

B14: Val^8-Phe^19-Glu^22-GLP-1(7-37)OH (peptide)
peptide: B4 peptide with Y13F, G16E
Consider B14, for which the “GLP-1 Receptor Activation” value with GLP-1 receptor [2] is 0.7 fold of GLP-1(7-37)OH.

B15: Val^8-Tyr^12-GLP-1(7-37)OH (peptide)
peptide: B4 peptide with F6Y
Regarding B15, the “GLP-1 Receptor Activation” value was 0.81 fold of GLP-1(7-37)OH with GLP-1 receptor [3] and 0.8 fold of GLP-1(7-37)OH with GLP-1 receptor [2].

B16: Val^8-Tyr^16-GLP-1(7-37)OH (peptide)
peptide: B4 peptide with V10Y
On to B16, for which the “GLP-1 Receptor Activation” value with GLP-1 receptor [3] and in the assay with GLP-1 receptor [2] was 1.18 fold of GLP-1(7-37)OH throughout.

B17: Val^8-Tyr^12-Glu^22-GLP-1(7-37)OH (peptide)
peptide: B4 peptide with F6Y, G16E
With B17, the “GLP-1 Receptor Activation” value in the assay with GLP-1 receptor [2] is 1.27 fold of GLP-1(7-37)OH.

B18: Val^8-Leu^25-GLP-1(7-37)OH (peptide)
peptide: B4 peptide with A19L
B18: the “GLP-1 Receptor Activation” value with GLP-1 receptor [2] was 0.24 fold of GLP-1(7-37)OH.

B19: HGEGTFTSDLSSYLEEEAVRLFIEWLKNGGP-NH2 (peptide)
peptide: HGEGTFTSDLSSYLEEEAVRLFIEWLKNGGP-NH2
In the case of B19, the “In Vitro Activity (% of Val^8-GLP-1(7-37)OH)” value with GLP-1 receptor [1] was 5.07 % of Val^8-GLP-1(7-37)OH.

B20: HAEGTFTSDVSKQLEEEAAKEFIAWLVKGRG (peptide)
peptide: HAEGTFTSDVSKQLEEEAAKEFIAWLVKGRG
As to B20, the “In Vitro Activity (% of Val^8-GLP-1(7-37)OH)” value in the assay with GLP-1 receptor [1] is 2.15 % of Val^8-GLP-1(7-37)OH.

B21: Val^8-Lys^18-Glu^22-GLP-1(7-37)OH (peptide)
peptide: B4 peptide with S12K, G16E
For the molecule B21, the “GLP-1 Receptor Activation” value in the assay with GLP-1 receptor [2] was 1.18 fold of GLP-1(7-37)OH.

B22: HGEGTFTSDLSKQMEEEAAKEFIEWLKNGGP-NH2 (peptide)
peptide: HGEGTFTSDLSKQMEEEAAKEFIEWLKNGGP-NH2
On to B22, for which the “In Vitro Activity (% of Val^8-GLP-1(7-37)OH)” value with GLP-1 receptor [1] was 2.8 % of Val^8-GLP-1(7-37)OH.

B23: HVEGTFTSDLSKQMEEEAVRLFIAWLVKGRG (peptide)
peptide: HVEGTFTSDLSKQMEEEAVRLFIAWLVKGRG
With B23, the “In Vitro Activity (% of Val^8-GLP-1(7-37)OH)” value with GLP-1 receptor [1] was 2.86 % of Val^8-GLP-1(7-37)OH.

B24: HGEGTFTSDLSKQMEEEAVRLFIAWLVKGRG (peptide)
peptide: B23 peptide with V2G
In the case of B24, the “In Vitro Activity (% of Val^8-GLP-1(7-37)OH)” value with GLP-1 receptor [1] is 3.25 % of Val^8-GLP-1(7-37)OH.

B25: HGEGTFTSDLSKQMEGQAAKEFIEWLKNGGP-NH2 (peptide)
peptide: HGEGTFTSDLSKQMEGQAAKEFIEWLKNGGP-NH2
As to B25, the “In Vitro Activity (% of Val^8-GLP-1(7-37)OH)” value in the assay with GLP-1 receptor [1] is 1.44 % of Val^8-GLP-1(7-37)OH.

B26: HAEGTFTSDVSSYLEGQAAKEFIAWLVKGRPSSGAPPPS-NH2 (peptide)
peptide: HAEGTFTSDVSSYLEGQAAKEFIAWLVKGRPSSGAPPPS-NH2
Take B26: the “In Vitro Activity (% of Val^8-GLP-1(7-37)OH)” value with GLP-1 receptor [1] is 3.3 % of Val^8-GLP-1(7-37)OH.

B27: HVEGTFTSDVSSYLEGQAAKEFIEWLKNGGP-NH2 (peptide)
peptide: HVEGTFTSDVSSYLEGQAAKEFIEWLKNGGP-NH2
As for B27, the “In Vitro Activity (% of Val^8-GLP-1(7-37)OH)” value with GLP-1 receptor [1] was 2.36 % of Val^8-GLP-1(7-37)OH.

Source of the values: patent US20040053370A1 (Eli Lilly, published 2004).
